The record followed here is patent US20170073382.

The target of this data set is synthetic TAL effector (RVG-LAMP-2B-NLS-TALE) (Artificial Sequence) (UniProt P14727). Put plainly: cell_activity.

Take “gfaABC1D-NeuroD1 plasmid without TAL effector binding site”: the binding signal is 1 fold.
